Results as given in patent publication US11034762 (CENTIVAX, dated 2021).
Changes are numbered by the printed parent chain.

T1: MERS Receptor Binding Domain (RBD) protein (MERS virus, UniProt K9N5Q8 367-606)
T1 construct: also called Middle East Respiratory Syndrome (MERS) virus
T1 sequence: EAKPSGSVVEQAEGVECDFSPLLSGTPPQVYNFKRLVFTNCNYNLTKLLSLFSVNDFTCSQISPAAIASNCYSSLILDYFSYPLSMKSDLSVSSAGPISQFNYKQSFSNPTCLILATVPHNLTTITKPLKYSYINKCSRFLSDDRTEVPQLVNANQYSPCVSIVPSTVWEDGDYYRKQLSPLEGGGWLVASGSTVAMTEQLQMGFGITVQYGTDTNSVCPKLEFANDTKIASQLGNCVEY

B1: COVID19_P21_H03 (scFv, V domains shown)
VH: QVQLVQSGAEVKKPGSSVKVSCKASGYTFTNYGINWVRQAPGQGLEWMGWMNPYSGNTGYAQKFQGRVTITADESTSTAYMELSSLRSEDTAVYYCAVLSGISTPMDVWGQGTLVTVSS
VL: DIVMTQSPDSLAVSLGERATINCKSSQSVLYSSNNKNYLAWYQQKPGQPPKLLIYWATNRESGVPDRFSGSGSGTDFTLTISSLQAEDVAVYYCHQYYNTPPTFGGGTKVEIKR
B2: COVID19_P10_A09 (scFv, V domains shown)
VH: B1 VH with N31D, G33Y, N35H, Y54N, K63N, V98G, L99G, P105A, M106W
VL: DIVMTQSPDSLAVSLGERATIRCTSSLSLQDRSNNKNYLTWYQQKPGQPPKLLIYWASTRESGVPDRFSGSGSGTDFTLTISSLQAEDVAVYYCQQHYSAPLTFGGGTKVEIKR
B3: COVID19_P21_E04 (scFv, V domains shown)
VH: B1 VH with V37M, Y54N, V98G, L99G
VL: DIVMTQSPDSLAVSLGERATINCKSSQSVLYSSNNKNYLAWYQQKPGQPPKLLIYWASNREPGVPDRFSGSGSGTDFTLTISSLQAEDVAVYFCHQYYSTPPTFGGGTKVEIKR
B4: COVID19_P21_B02 (scFv, V domains shown)
VH: B1 VH with Y54N, V98A, L99V
VL: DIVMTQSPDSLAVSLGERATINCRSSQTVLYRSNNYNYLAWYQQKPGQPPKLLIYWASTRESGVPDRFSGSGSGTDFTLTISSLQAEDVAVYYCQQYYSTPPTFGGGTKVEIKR
B5: COVID19_P09_B10 (scFv, V domains shown)
VH: QVQLVQSGAEVKKPGSSVKVSCKASGYSFTDYHIHWVRQAPGQGLEWMAMIVPRGGSTTYAQKFQGRVTITADESTSTAYMELSSLRSEDTAVYYCAGGSGISTPMDVWGQGTLVTVSS
VL: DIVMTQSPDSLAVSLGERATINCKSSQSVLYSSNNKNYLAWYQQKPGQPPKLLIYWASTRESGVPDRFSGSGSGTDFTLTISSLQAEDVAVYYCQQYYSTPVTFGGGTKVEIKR
B6: COVID19_P21_E12 (scFv, V domains shown)
VH: QVQLVQSGAEVKKPGSSVKVSCKASGGTFISYAISWVRQAPGQGLEWMGGIIPTLGTYNYAQKFQGRVTITADESTSTAYMELSSLRSEDTAVYYCAGSWGISTPMDVWGQGTLVTVSS
VL: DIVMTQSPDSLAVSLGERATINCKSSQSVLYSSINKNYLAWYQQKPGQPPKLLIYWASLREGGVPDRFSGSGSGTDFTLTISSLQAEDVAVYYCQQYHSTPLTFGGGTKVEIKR
notes: also called COVID19_P21_El2
B7: COVID19_P22_F04 (scFv, V domains shown)
VH: QVQLVQSGAEVKKPGSSVKVSCKASGGGFITYWIGWVRQAPGQGLEWMGIIYPGDGEARYSQKFQGRVTITADESTSTAYMELSSLRSEDTAVYYCAGGSGISTPMDVWGQGTLVTVSS
VL: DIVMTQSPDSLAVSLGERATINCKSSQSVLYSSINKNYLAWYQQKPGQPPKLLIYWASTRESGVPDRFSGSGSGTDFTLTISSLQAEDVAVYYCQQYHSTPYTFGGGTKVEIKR
B8: COVID19_P21_A08 (scFv, V domains shown)
VH: B7 VH with G28T, I50W, Y52N, G54N, D55S, E57G, A58T, R59N, S61A
VL: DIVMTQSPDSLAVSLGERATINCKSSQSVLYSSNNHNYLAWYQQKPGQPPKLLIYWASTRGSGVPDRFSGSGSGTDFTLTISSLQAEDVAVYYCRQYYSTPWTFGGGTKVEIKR
B9: COVID19_P09_C05 (scFv, V domains shown)
VH: B5 VH with T30S, H33Y, A49G, M50W, V52D, R54N, G55S, S57G, T59N
VL: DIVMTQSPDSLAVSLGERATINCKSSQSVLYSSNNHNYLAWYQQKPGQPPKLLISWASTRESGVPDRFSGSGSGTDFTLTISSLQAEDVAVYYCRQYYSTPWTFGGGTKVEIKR
B10: COVID19_P22_H10 (scFv, V domains shown)
VH: B7 VH with I30S, M48V, I50W, Y52N, G54N, D55S, E57A, A58T, R59K, S61A
VL: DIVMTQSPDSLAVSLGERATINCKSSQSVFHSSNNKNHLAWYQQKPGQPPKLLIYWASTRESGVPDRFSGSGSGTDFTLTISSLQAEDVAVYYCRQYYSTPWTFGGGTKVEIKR
B11: COVID19_P21_B01 (scFv, V domains shown)
VH: QVQLVQSGAEVKKPGSSVKVSCKASGYTFSTYWIGWVRQAPGQGLEWMGWIDPNSGGTNYAQKFQGRVTITADESTSTAYMELSSLRSEDTAVYYCAGGSGISTPMDVWGQGTLVTVSS
VL: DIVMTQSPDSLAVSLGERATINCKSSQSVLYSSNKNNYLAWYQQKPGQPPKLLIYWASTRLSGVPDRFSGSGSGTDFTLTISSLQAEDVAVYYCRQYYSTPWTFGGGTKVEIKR
B12: COVID19_P21_B09 (scFv, V domains shown)
VH: B7 VH with G27Y, G28T, I30T, T31G, Y32H, W33Y, I34M, G35H, G56S
VL: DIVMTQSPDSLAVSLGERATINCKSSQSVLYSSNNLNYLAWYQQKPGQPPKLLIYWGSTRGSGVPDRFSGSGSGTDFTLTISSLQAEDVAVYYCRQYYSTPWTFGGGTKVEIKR
B13: COVID19_P10_C05 (scFv, V domains shown)
VH: B7 VH with G28T, G99S, S100G
VL: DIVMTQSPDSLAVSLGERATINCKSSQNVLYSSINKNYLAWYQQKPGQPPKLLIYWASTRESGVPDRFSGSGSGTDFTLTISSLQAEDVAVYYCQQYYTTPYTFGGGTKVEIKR

Key:
[1] = biological target: SARS-CoV-2 Receptor Binding Domain (RBD) protein (SARS-CoV-2, UniProt P0DTC2 319-541)
[2] = biological target: T1, MERS Receptor Binding Domain (RBD) …; assay: SPR; clone listed as COV2 only at the 21st table, row 65, column 3
[3] = biological target: T2, SARS-CoV-1 Receptor Binding Domain (RBD) protein (SARS-CoV-1, UniProt P59594 306-527); assay: as above
T2 construct: also called SARS1

[4] = biological target: T1, MERS Receptor Binding Domain (RBD) …; assay: SPR; clone listed as COV2 only at the 21st table, row 60, column 3
[5] = biological target: T2, SARS-CoV-1 Receptor Binding Domain …; assay: as above
[6] = biological target: T1, MERS Receptor Binding Domain (RBD) …; assay: SPR; clone listed as COV2 only at the 21st table, row 64, column 3
[7] = biological target: T2, SARS-CoV-1 Receptor Binding Domain …; assay: as above
[8] = biological target: T1, MERS Receptor Binding Domain (RBD) …; assay: SPR; clone listed as COV2 only at the 21st table, row 63, column 3
[9] = biological target: T2, SARS-CoV-1 Receptor Binding Domain …; assay: as above
[10] = biological target: T1, MERS Receptor Binding Domain (RBD) …; assay: SPR; clone listed as COV2 only at the 21st table, row 58, column 3
[11] = biological target: T2, SARS-CoV-1 Receptor Binding Domain …; assay: as above
[12] = biological target: T1, MERS Receptor Binding Domain (RBD) …; assay: SPR; clone listed as COV2 only at the 21st table, row 13, column 3
[13] = biological target: T2, SARS-CoV-1 Receptor Binding Domain …; assay: as above
[14] = biological target: T1, MERS Receptor Binding Domain (RBD) …; assay: SPR; clone listed as COV2 only at the 21st table, row 4, column 3
[15] = biological target: T2, SARS-CoV-1 Receptor Binding Domain …; assay: as above
[16] = biological target: T1, MERS Receptor Binding Domain (RBD) …; assay: SPR; clone listed as COV2 only at the 21st table, row 15, column 3
[17] = biological target: T2, SARS-CoV-1 Receptor Binding Domain …; assay: as above
[18] = biological target: T1, MERS Receptor Binding Domain (RBD) …; assay: SPR; clone listed as COV2 only at the 21st table, row 57, column 3
[19] = biological target: T2, SARS-CoV-1 Receptor Binding Domain …; assay: as above
[20] = biological target: T1, MERS Receptor Binding Domain (RBD) …; assay: SPR; clone listed as COV2 only at the 21st table, row 12, column 3
[21] = biological target: T2, SARS-CoV-1 Receptor Binding Domain …; assay: as above
[22] = biological target: T1, MERS Receptor Binding Domain (RBD) …; assay: SPR; clone listed as COV2 only at the 21st table, row 59, column 3
[23] = biological target: T2, SARS-CoV-1 Receptor Binding Domain …; assay: as above
[24] = biological target: T1, MERS Receptor Binding Domain (RBD) …; assay: SPR; clone listed as COV2 only at the 21st table, row 61, column 3
[25] = biological target: T2, SARS-CoV-1 Receptor Binding Domain …; assay: as above
[26] = biological target: T1, MERS Receptor Binding Domain (RBD) …; assay: SPR; clone listed as COV2 only at the 21st table, row 14, column 3
[27] = biological target: T2, SARS-CoV-1 Receptor Binding Domain …; assay: as above

Row | Binder | Kd [1] | koff [1] | kon [1] | other results
1 | B1 | 11.6 nM | 0.00113 s⁻¹ | 97200 M⁻¹ s⁻¹ | binding result [2]: no binding (tested: up to 300 nM); binding result [3]: no binding (tested: up to 300 nM)
2 | B2 | 20.5 nM | 0.00112 s⁻¹ | 54800 M⁻¹ s⁻¹ | binding result [4]: no binding (tested: up to 300 nM); binding result [5]: no binding (tested: up to 300 nM)
3 | B3 | 2.15 nM | 0.000588 s⁻¹ | 273000 M⁻¹ s⁻¹ | binding result [6]: no binding (tested: up to 300 nM); binding result [7]: no binding (tested: up to 300 nM)
4 | B4 | 45.5 nM | 0.0127 s⁻¹ | 278000 M⁻¹ s⁻¹ | binding result [8]: no binding (tested: up to 300 nM); binding result [9]: no binding (tested: up to 300 nM)
5 | B5 | 39.7 nM | 0.00323 s⁻¹ | 81400 M⁻¹ s⁻¹ | binding result [10]: no binding (tested: up to 300 nM); binding result [11]: no binding (tested: up to 300 nM)
6 | B6 | 8.82 nM | 0.000586 s⁻¹ | 66500 M⁻¹ s⁻¹ | binding result [12]: no binding (tested: up to 300 nM); binding result [13]: no binding (tested: up to 300 nM)
7 | B7 | 30.6 nM | 0.0085 s⁻¹ | 280000 M⁻¹ s⁻¹ | binding result [14]: no binding (tested: up to 300 nM); binding result [15]: no binding (tested: up to 300 nM)
8 | B8 | 13.3 nM | 0.000496 s⁻¹ | 37300 M⁻¹ s⁻¹ | binding result [16]: no binding (tested: up to 300 nM); binding result [17]: no binding (tested: up to 300 nM)
9 | B9 | 1.18 nM | 0.000185 s⁻¹ | 157000 M⁻¹ s⁻¹ | binding result [18]: no binding (tested: up to 300 nM); binding result [19]: no binding (tested: up to 300 nM)
10 | B10 | 7.59 nM | 0.00057 s⁻¹ | 75000 M⁻¹ s⁻¹ | binding result [20]: no binding (tested: up to 300 nM); binding result [21]: no binding (tested: up to 300 nM)
11 | B11 | 0.91 nM | 5.7e-05 s⁻¹ | 62400 M⁻¹ s⁻¹ | binding result [22]: no binding (tested: up to 300 nM); binding result [23]: no binding (tested: up to 300 nM)
12 | B12 | 3.71 nM | 0.000207 s⁻¹ | 55900 M⁻¹ s⁻¹ | binding result [24]: no binding (tested: up to 300 nM); binding result [25]: no binding (tested: up to 300 nM)
13 | B13 | 33.8 nM | 0.0156 s⁻¹ | 462000 M⁻¹ s⁻¹ | binding result [26]: no binding (tested: up to 300 nM); binding result [27]: no binding (tested: up to 300 nM)
